Key:
[1] = molecular target: CD40 on peripheral blood mononuclear cells (PBMC) from healthy donors (human, UniProt P25942 21-277); experiment: cell-based or functional assay
recombinant CD40 = molecular target: T1, recombinant CD40 (human, UniProt P25942 21-193, limits assumed); experiment: ELISA, plates coated with recombinant CD40, AP-conjugated anti-human kappa detection; effective concentration in supernatant read on a PG102 reference curve
T1 construct: the ELISA method itself names no species or construct; also called antigen CD40
Protocol: Binding of the antibody variants to CD40 was measured using an ELISA based assay based on UKSL-2057. Microtiter plates were coated with recombinant CD40 before the antibody variants were added and detected using an alkaline phosphatase conjugated antihuman kappa IgG.
Samples were then prepared and analyzed The results were converted to effective concentrations in the clarified supernatant […] This assay provides an assessment of the affinity of the antibody variants for CD40.

Chain of CD40 on peripheral blood mononuclear cells (PBMC) from healthy donors (P25942 21-277): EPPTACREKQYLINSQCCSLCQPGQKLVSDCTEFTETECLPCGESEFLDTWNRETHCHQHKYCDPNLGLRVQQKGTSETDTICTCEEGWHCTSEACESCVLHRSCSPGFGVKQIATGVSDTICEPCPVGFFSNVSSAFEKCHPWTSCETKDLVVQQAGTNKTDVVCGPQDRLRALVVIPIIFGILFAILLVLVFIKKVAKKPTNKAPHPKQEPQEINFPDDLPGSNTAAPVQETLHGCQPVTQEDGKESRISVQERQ
T1 sequence (P25942 21-193 limits assumed): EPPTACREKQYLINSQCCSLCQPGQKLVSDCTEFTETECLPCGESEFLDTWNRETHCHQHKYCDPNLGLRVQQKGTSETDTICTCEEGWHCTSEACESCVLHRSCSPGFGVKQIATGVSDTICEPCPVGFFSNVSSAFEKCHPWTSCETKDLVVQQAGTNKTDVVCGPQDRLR

Row | Binder | Percentage inhibition of TNF secretion at 1 ng/ml [1] | Percentage inhibition of TNF secretion at 10 ng/ml [1] | CD40 binding (recombinant CD40)
1 | PG102 wild-type recombinant antibody (antibody, human IgG4 S228P, kappa, V domains shown, Human IgG4pro(deltaK) heavy, kappa light; also called PG102_Wt; PG102 wt) VH: QVKLQESGPGLVKPSETLSITCTVSGFSLSRYSVYWIRQPPGKGPEWMGMMWGGGSTDYSTSLKSRLTISKDTSKSQVSLKMNSLRTDDTAMYYCVRTDGDYWGQGTTVTVSS VL: ELQLTQSPLSLPVTLGQPASISCRSSQSLANSNGNTYLHWYLQRPGQSPRLLIYKVSNRFSGVPDRFSGSGSGTDFTLKISRVEAEDVGVYYCSQSTHVPWTFGGGTKLEIKR | -5.2% | 81.2% | 14.6 mg/L
2 | PG102_Var7 (antibody, human IgG4 S228P, kappa, V domains shown, IgG4pro(deltaK)/kappa; also called FFP104_Var7) VH: QVQLQESGPGLVKPSQTLSLTCTVSGFSLSRYSVYWVRQPPGKGLEWIGMMWGGGSTDYNPSLKSRLTISKDTSKSQVSLKLSSLTAADTAVYYCVRTDGDYWGQGTLVTVSS VL: ELQLTQSPLSLPVTLGQPASISCRSSQSLASSQGNTYLHWYLQRPGQSPRLLIYKVSNRFSGVPDRFSGSGSGTDFTLKISRVEAEDVGVYYCSQSTHVPWTFGGGTKLEIKR |  |  | 33.6 mg/L
3 | PG102_Var8 (antibody, human IgG4 S228P, kappa, V domains shown, IgG4pro(deltaK)/kappa; also called FFP104_Var8) VH: QVQLVESGGGLVKPGGSLRLSCAVSGFSLSRYSVYWIRQAPGKGLEWMGMMWGGGSTDYSTSVKGRFTISKDNAKTSVYLQMSSLRAEDTAVYYCVRTDGDYWGQGTLVTVSS VL: ELQLTQSPLSLPVTLGQPASISCRSSQSLASSQGNTYLHWYLQRPGQSPRLLIYKVSNRFSGVPDRFSGSGSGTDFTLKISRVEAEDVGVYYCSQSTHVPWTFGGGTKLEIKR |  |  | 23.5 mg/L
4 | PG102_Var5 (antibody, human IgG4 S228P, kappa, V domains shown, IgG4pro(deltaK)/kappa; also called FFP104_Var5) VH: QVQLQESGPGLVKPSETLSITCTVSGFSLSRYSVYWIRQPPGKGPEWMGMMWGGGSTDYSTSLKSRLTISKDTSKSQVSLKMSSLTAADTAVYYCVRTDGDYWGQGTLVTVSS VL: ELQLTQSPLSLPVTLGQPASISCRSSQSLASSQGNTYLHWYLQRPGQSPRLLIYKVSNRFSGVPDRFSGSGSGTDFTLKISRVEAEDVGVYYCSQSTHVPWTFGGGTKLEIKR | 22.5% | 87.4% | 34.9 mg/L
5 | PG102_Var14 (antibody, human IgG4 S228P, kappa, V domains shown, IgG4pro(deltaK)/kappa; also called FFP104_Var14) VH: QVQLQESGPGLVKPSETLSITCTVSGFSLSRYSVYWVRQPPGKGLEWMGMMWGGGSTDYSTSLKSRLTISKDTSKSQVSLKMSSLTAADTAVYYCVRTDGDYWGQGTLVTVSS VL: DIVMTQSPLSLPVTPGQPASISCRSSQSLASSQGNTYLHWYLQKPGQSPRLLIYKVSNRFSGVPDRFSGSGSGTDFTLKISRVEAEDVGVYYCSQSTHVPWTFGGGTKLEIKR | 21.8% | 85.5% | 23 mg/L
6 | PG102_Var4 (antibody, human IgG4 S228P, kappa, V domains shown, IgG4pro(deltaK)/kappa; also called FFP104_Var4) VH: QVQLVESGGGLVKPGGSLRLSCAVSGFSLSRYSVYWIRQAPGKGLEWMGMMWGGGSTDYSTSVKGRFTISKDNAKTSVYLQMSSLRAEDTAVYYCVRTDGDYWGQGTLVTVSS VL: ELQLTQSPLSLPVTLGQPASISCRSSQSLASSSGNTYLHWYLQRPGQSPRLLIYKVSNRFSGVPDRFSGSGSGTDFTLKISRVEAEDVGVYYCSQSTHVPWTFGGGTKLEIKR |  |  | 29.5 mg/L
7 | PG102_Var1 (antibody, human IgG4 S228P, kappa, V domains shown, IgG4pro(deltaK)/kappa; also called FFP104_Var1) VH: QVQLQESGPGLVKPSETLSITCTVSGFSLSRYSVYWIRQPPGKGPEWMGMMWGGGSTDYSTSLKSRLTISKDTSKSQVSLKMSSLTAADTAVYYCVRTDGDYWGQGTLVTVSS VL: ELQLTQSPLSLPVTLGQPASISCRSSQSLASSSGNTYLHWYLQRPGQSPRLLIYKVSNRFSGVPDRFSGSGSGTDFTLKISRVEAEDVGVYYCSQSTHVPWTFGGGTKLEIKR | -0.9% | 81.8% | 34.9 mg/L
8 | PG102_Var12 (antibody, human IgG4 S228P, kappa, V domains shown, IgG4pro(deltaK)/kappa; also called FFP104_Var12) VH: QVQLVESGGGLVKPGGSLRLSCAVSGFSLSRYSVYWIRQAPGKGLEWMGMMWGGGSTDYSTSVKGRFTISKDNAKTSVYLQMSSLRAEDTAVYYCVRTDGDYWGQGTLVTVSS VL: ELQLTQSPLSLPVTLGQPASISCRSSQSLADSQGNTYLHWYLQRPGQSPRLLIYKVSNRFSGVPDRFSGSGSGTDFTLKISRVEAEDVGVYYCSQSTHVPWTFGGGTKLEIKR |  |  | 2.35 mg/L
9 | PG102_Var10 (antibody, human IgG4 S228P, kappa, V domains shown, IgG4pro(deltaK)/kappa; also called FFP104_Var10) VH: QVQLQESGPGLVKPSETLSITCTVSGFSLSRYSVYWVRQPPGKGLEWMGMMWGGGSTDYSTSLKSRLTISKDTSKSQVSLKMSSLTAADTAVYYCVRTDGDYWGQGTLVTVSS VL: ELQLTQSPLSLPVTLGQPASISCRSSQSLADSQGNTYLHWYLQRPGQSPRLLIYKVSNRFSGVPDRFSGSGSGTDFTLKISRVEAEDVGVYYCSQSTHVPWTFGGGTKLEIKR | 14.4% | 75.8% | 4.35 mg/L
10 | PG102_Var11 (antibody, human IgG4 S228P, kappa, V domains shown, IgG4pro(deltaK)/kappa; also called FFP104_Var11) VH: QVQLQESGPGLVKPSQTLSLTCTVSGFSLSRYSVYWVRQPPGKGLEWIGMMWGGGSTDYNPSLKSRLTISKDTSKSQVSLKLSSLTAADTAVYYCVRTDGDYWGQGTLVTVSS VL: ELQLTQSPLSLPVTLGQPASISCRSSQSLADSQGNTYLHWYLQRPGQSPRLLIYKVSNRFSGVPDRFSGSGSGTDFTLKISRVEAEDVGVYYCSQSTHVPWTFGGGTKLEIKR |  |  | 12.6 mg/L

Further lines, results first:

Row | Percentage inhibition of TNF secretion at 1 ng/ml [1] | Percentage inhibition of TNF secretion at 10 ng/ml [1] | CD40 binding (recombinant CD40) | Binder
11 | 20.2% | 87.2% | 30.1 mg/L | PG102_Var2 (antibody, human IgG4 S228P, kappa, V domains shown, IgG4pro(deltaK)/kappa; also called FFP104_Var2) VH: QVQLQESGPGLVKPSETLSITCTVSGFSLSRYSVYWVRQPPGKGLEWMGMMWGGGSTDYSTSLKSRLTISKDTSKSQVSLKMSSLTAADTAVYYCVRTDGDYWGQGTLVTVSS VL: ELQLTQSPLSLPVTLGQPASISCRSSQSLASSSGNTYLHWYLQRPGQSPRLLIYKVSNRFSGVPDRFSGSGSGTDFTLKISRVEAEDVGVYYCSQSTHVPWTFGGGTKLEIKR
12 |  |  | 29.4 mg/L | PG102_Var15 (antibody, human IgG4 S228P, kappa, V domains shown, IgG4pro(deltaK)/kappa; also called FFP104_Var15) VH: QVQLQESGPGLVKPSQTLSLTCTVSGFSLSRYSVYWVRQPPGKGLEWIGMMWGGGSTDYNPSLKSRLTISKDTSKSQVSLKLSSLTAADTAVYYCVRTDGDYWGQGTLVTVSS VL: DIVMTQSPLSLPVTPGQPASISCRSSQSLASSQGNTYLHWYLQKPGQSPRLLIYKVSNRFSGVPDRFSGSGSGTDFTLKISRVEAEDVGVYYCSQSTHVPWTFGGGTKLEIKR
13 |  |  | 17 mg/L | PG102_Var9 (antibody, human IgG4 S228P, kappa, V domains shown, IgG4pro(deltaK)/kappa; also called FFP104_Var9) VH: QVQLQESGPGLVKPSETLSITCTVSGFSLSRYSVYWIRQPPGKGPEWMGMMWGGGSTDYSTSLKSRLTISKDTSKSQVSLKMSSLTAADTAVYYCVRTDGDYWGQGTLVTVSS VL: ELQLTQSPLSLPVTLGQPASISCRSSQSLADSQGNTYLHWYLQRPGQSPRLLIYKVSNRFSGVPDRFSGSGSGTDFTLKISRVEAEDVGVYYCSQSTHVPWTFGGGTKLEIKR
14 |  |  | 20.7 mg/L | PG102_Var16 (antibody, human IgG4 S228P, kappa, V domains shown, IgG4pro(deltaK)/kappa; also called FFP104_Var16) VH: QVQLVESGGGLVKPGGSLRLSCAVSGFSLSRYSVYWIRQAPGKGLEWMGMMWGGGSTDYSTSVKGRFTISKDNAKTSVYLQMSSLRAEDTAVYYCVRTDGDYWGQGTLVTVSS VL: DIVMTQSPLSLPVTPGQPASISCRSSQSLASSQGNTYLHWYLQKPGQSPRLLIYKVSNRFSGVPDRFSGSGSGTDFTLKISRVEAEDVGVYYCSQSTHVPWTFGGGTKLEIKR
15 |  |  | 22.8 mg/L | PG102_Var13 (antibody, human IgG4 S228P, kappa, V domains shown, IgG4pro(deltaK)/kappa; also called FFP104_Var13) VH: QVQLQESGPGLVKPSETLSITCTVSGFSLSRYSVYWIRQPPGKGPEWMGMMWGGGSTDYSTSLKSRLTISKDTSKSQVSLKMSSLTAADTAVYYCVRTDGDYWGQGTLVTVSS VL: DIVMTQSPLSLPVTPGQPASISCRSSQSLASSQGNTYLHWYLQKPGQSPRLLIYKVSNRFSGVPDRFSGSGSGTDFTLKISRVEAEDVGVYYCSQSTHVPWTFGGGTKLEIKR
16 | 16.1% | 88.5% | 38.5 mg/L | PG102_Var3 (antibody, human IgG4 S228P, kappa, V domains shown, IgG4pro(deltaK)/kappa; also called FFP104_Var3) VH: QVQLQESGPGLVKPSQTLSLTCTVSGFSLSRYSVYWVRQPPGKGLEWIGMMWGGGSTDYNPSLKSRLTISKDTSKSQVSLKLSSLTAADTAVYYCVRTDGDYWGQGTLVTVSS VL: ELQLTQSPLSLPVTLGQPASISCRSSQSLASSSGNTYLHWYLQRPGQSPRLLIYKVSNRFSGVPDRFSGSGSGTDFTLKISRVEAEDVGVYYCSQSTHVPWTFGGGTKLEIKR
17 | 16.6% | 86% | 39.7 mg/L | PG102_Var6 (antibody, human IgG4 S228P, kappa, V domains shown, IgG4pro(deltaK)/kappa; also called FFP104_Var6) VH: QVQLQESGPGLVKPSETLSITCTVSGFSLSRYSVYWVRQPPGKGLEWMGMMWGGGSTDYSTSLKSRLTISKDTSKSQVSLKMSSLTAADTAVYYCVRTDGDYWGQGTLVTVSS VL: ELQLTQSPLSLPVTLGQPASISCRSSQSLASSQGNTYLHWYLQRPGQSPRLLIYKVSNRFSGVPDRFSGSGSGTDFTLKISRVEAEDVGVYYCSQSTHVPWTFGGGTKLEIKR

From US11396552 (DIABETES FREE, dated 2022)
